# Laboratory results: patent US20180185502A1, “IMMOBILIZATION OF BIOMOLECULES BY SELF-ASSEMBLED NANOSTRUCTURES” (priority 2015, published 2018)
# How the values were obtained:
# Format in all cases: biochemical
# R. rubrum RubisCO [1] = target: T1, R. rubrum RubisCO (Rhodospirillum rubrum, UniProt P04718); assay: Stability of nanotube-RubisCO co-assembly to proteolysis by subtilisin over 45 minutes; details: within 45 minutes; FIG. 5
# T1 sequence (P04718 1-466): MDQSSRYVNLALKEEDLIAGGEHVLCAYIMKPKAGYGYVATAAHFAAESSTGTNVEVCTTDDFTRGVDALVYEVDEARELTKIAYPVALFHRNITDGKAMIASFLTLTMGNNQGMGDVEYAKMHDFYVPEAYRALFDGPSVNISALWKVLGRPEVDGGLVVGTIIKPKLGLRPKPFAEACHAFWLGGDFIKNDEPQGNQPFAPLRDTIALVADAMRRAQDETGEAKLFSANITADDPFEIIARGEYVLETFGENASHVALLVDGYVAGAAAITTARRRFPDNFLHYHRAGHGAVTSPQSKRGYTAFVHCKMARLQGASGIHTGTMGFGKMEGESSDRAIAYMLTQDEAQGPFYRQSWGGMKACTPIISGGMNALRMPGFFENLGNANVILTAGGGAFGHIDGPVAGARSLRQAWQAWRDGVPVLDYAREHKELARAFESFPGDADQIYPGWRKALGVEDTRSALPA
# Method: Subtilisin is a non-specific, serine protease capable of rapidly degrading proteins by amide bond cleavage. The stability of the nanotube-RubisCO co-assembly to proteolysis by subtilisin was evaluated over 45 minutes and compared to the free R. rubrum RubisCO. […] In contrast, the bound enzyme retains 75% of its activity upon exposure to the protease over this time range.
# R. rubrum RubisCO [2] = target: T1, R. rubrum RubisCO; assay: RubisCO functional assay (activity of free, nanotube-bound or monomer-exposed enzyme); details: initial functional assays
# R. rubrum RubisCO [3] = target: T1, R. rubrum RubisCO; assay: as above
# Method: Although the samples were identical in purity and composition, the resultant activity of the bound RubisCO varied. […] Thus, by pelleting the nanotube by ultracentrifugation, followed by additional washing of the pellet, prior to adding the enzyme, the activity increased dramatically to 67%.
# Nanotubes for this experiment were set up with 10 mM monomer in 1 mL buffer and aged for ˜5 days at room temperature. Nanotubes were then isolated using ultracentrifugation and re-suspended back in 1 mL buffer with 0.1 mg of R. rubrum RubisCO. This suspension was incubated at 1° C. for 15 hrs prior to ultracentrifugation and re-suspension of the final nanotubes in 1 mL buffer.
# [4] = Subtilisin (0.5 μg/ml; 30° C./1 hr)
# [5] = RubisCO alone or with pre-formed nanotubes added
# [6] = pre-formed nanotubes from 10 mM monomer aged ~5 days, isolated by ultracentrifugation, re-suspended with 0.1 mg RubisCO in 1 mL buffer, 15 hrs
substance,measurement,setting,value
"Pure R. rubrum RubisCO: RubisCO dimer from the bacterium Rhodospirillum rubrum, a CO2-fixing enzyme, free form",loss of activity in presence of subtilisin,R. rubrum RubisCO [1],80%
same,% Activity retained,R. rubrum RubisCO [2]; Heat (65° C./10 min),77%
same,Activity,R. rubrum RubisCO [2]; Heat (65° C./10 min),2248 nmol/min/mg
same,% Activity retained,R. rubrum RubisCO [2]; [4],7%
same,Activity,R. rubrum RubisCO [2]; [4],212 nmol/min/mg
same,Activity,R. rubrum RubisCO [2]; untreated or no treatment stated,2903 nmol/min/mg
same,Activity,"R. rubrum RubisCO [2]; untreated or no treatment stated, listed as 0.1 mg/ml R. rubrum RubisCO (after 80K spin)",3007 nmol/min/mg
same,% Activity retained,"R. rubrum RubisCO [2]; untreated or no treatment stated, relative to pure R. rubrum RubisCO",100%
same,% Activity retained,"R. rubrum RubisCO [2]; untreated or no treatment stated, relative to pure R. rubrum RubisCO, listed as 0.1 mg/ml R. rubrum RubisCO (after 80K spin)",104%
same,% Activity retained,R. rubrum RubisCO [3]; [5],100%
same,Activity,R. rubrum RubisCO [3]; [5],3405 nmol/min/mg
same,% Activity retained,R. rubrum RubisCO [3]; [6],100%
same,Activity,R. rubrum RubisCO [3]; [6],1803 nmol/min/mg
